What was measured:
[1] = target: tyrosine-protein kinase Met (c-Met) on human tumor cells (human) (UniProt P08581); test: cell-based or functional assay
[2] = target: HER2-BsAb bispecific control antibody (TA1-Fab anti-CD3 x HER2 VHH); test: BLI self-interaction, AHQ sensor
[3] = target: CEA-BsAb bispecific control antibody (TA1-Fab anti-CD3 x CEA VHH); test: BLI self-interaction, AHQ sensor
[4] = target: CEA-CAM6-BsAb bispecific control antibody (TA1-Fab anti-CD3 x CEA-CAM6 VHH); test: BLI self-interaction, AHQ sensor
[5] = target: EGFR-BsAb bispecific control antibody (TA1-Fab anti-CD3 x EGFR VHH); test: BLI self-interaction, AHQ sensor

Chain of tyrosine-protein kinase Met (c-Met) on human tumor cells (human) (P08581 25-1390): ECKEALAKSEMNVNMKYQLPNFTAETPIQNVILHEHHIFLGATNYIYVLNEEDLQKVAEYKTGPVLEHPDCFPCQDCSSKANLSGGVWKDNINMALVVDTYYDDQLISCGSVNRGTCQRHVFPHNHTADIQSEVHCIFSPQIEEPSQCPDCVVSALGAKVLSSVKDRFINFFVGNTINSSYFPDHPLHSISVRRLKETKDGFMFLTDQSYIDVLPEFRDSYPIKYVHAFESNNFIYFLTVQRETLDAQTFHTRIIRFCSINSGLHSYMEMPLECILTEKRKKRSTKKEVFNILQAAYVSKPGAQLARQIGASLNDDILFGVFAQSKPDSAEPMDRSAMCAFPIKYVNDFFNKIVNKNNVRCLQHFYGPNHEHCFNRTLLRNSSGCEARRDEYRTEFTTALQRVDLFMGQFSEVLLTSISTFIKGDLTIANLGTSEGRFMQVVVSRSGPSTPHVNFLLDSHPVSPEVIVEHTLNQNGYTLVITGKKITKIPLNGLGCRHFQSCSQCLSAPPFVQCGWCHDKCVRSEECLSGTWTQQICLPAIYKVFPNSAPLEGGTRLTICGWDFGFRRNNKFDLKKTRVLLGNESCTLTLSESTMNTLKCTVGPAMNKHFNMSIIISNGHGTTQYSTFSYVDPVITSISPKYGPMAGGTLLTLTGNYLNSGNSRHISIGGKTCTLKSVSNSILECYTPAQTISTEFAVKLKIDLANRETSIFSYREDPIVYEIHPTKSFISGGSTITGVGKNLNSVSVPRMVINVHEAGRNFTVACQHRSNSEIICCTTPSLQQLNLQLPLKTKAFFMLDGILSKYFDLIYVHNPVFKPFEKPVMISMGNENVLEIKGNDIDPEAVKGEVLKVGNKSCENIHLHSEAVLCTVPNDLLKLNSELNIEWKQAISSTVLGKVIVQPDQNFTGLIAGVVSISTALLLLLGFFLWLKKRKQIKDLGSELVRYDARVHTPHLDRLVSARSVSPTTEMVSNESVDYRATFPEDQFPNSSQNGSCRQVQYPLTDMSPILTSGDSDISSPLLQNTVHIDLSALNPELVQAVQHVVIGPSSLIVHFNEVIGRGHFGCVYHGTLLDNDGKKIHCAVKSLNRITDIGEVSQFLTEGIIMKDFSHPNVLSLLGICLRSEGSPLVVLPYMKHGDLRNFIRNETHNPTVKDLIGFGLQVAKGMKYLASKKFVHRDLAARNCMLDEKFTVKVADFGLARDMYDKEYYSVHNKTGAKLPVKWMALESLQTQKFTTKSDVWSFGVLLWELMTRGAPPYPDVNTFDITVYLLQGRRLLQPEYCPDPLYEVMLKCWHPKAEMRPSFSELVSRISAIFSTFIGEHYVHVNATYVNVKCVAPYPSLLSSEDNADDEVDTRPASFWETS

B1: c-Met-BsAb bispecific control antibody (anti-CD3 TA1 Fab and c-Met VHH) (bispecific antibody, not shown: a dimerising Fc or GST)
heavy: EVKLLESGGGLVQPKGSLKLSCAASGFTFNTYAMNWVRQAPGKGLEWVARIRSKYNNYATYYADSVKDRFTISRDDSQSILYLQMNNLKTEDTAMYYCVRHGNFGNSYVSWFAYWGQGTLVTVSSASTKGPSVFPLAPCSRSTSESTAALGCLVKDYFPEPVTVSWNSGALTSGVHTFPAVLQSSGLYSLSSVVTVPSSSLGTKTYTCNVDHKPSNTKVDKRV
chain: QVKLEESGGDLVQPGGSLRLSCVGSGSIFSYTAMGWYRQAPGKQRELVATIHSGGNINYADSVKGRFTISRDNTENTVYLQMNSLKPEDTAVYYCWSLLVGPETRYKDFNFWGRGTQVTVSS
light: QAVVTQESALTTSPGETVTLTCRSSTGAVTTSNYANWVQEKPDHLFTGLIGGTNKRAPGVPARFSGSLIGDKAALTITGAQTEDEAIYFCALWYSNLWVFGGGTKVEIKRTVAAPSVFIFPPSDEQLKSGTASVVCLLNNFYPREAKVQWKVDNALQSGNSQESVTEQDSKDSTYSLSSTLTLSKADYEKHKVYACEVTHQGLSSPVTKSFNRGEC
[1]
  T cell mediated killing EC50, H-1975 (EGFR+c-Met+): 0.223 pM
  T cell mediated killing EC50, HT-29 (EGFR+c-Met+): 0.518 pM
  T cell mediated killing EC50, OSRC2 (EGFR+++c-Met+): 243 pM
  T cell mediated killing EC50, UT33A (EGFR+++c-Met+++): 2.7 pM
  T cell mediated killing EC50, UT44 (EGFR+++c-Met++): 0.156 pM

B2: HER2-BsAb bispecific control antibody (TA1-Fab anti-CD3 x HER2 VHH) (bispecific antibody, human IgG4 S228P, kappa, F234A L235A)
heavy: EVKLLESGGGLVQPKGSLKLSCAASGFTFNTYAMNWVRQAPGKGLEWVARIRSKYNNYATYYADSVKDRFTISRDDSQSILYLQMNNLKTEDTAMYYCVRHGNFGNSYVSWFAYWGQGTLVTVSSASTKGPSVFPLAPCSRSTSESTAALGCLVKDYFPEPVTVSWNSGALTSGVHTFPAVLQSSGLYSLSSVVTVPSSSLGTKTYTCNVDHKPSNTKVDKRVESKYGPPCPPCPAPEAAGGPSVFLFPPKPKDTLMISRTPEVTCVVVDVSQEDPEVQFNWYVDGVEVHNAKTKPREEQFNSTYRVVSVLTVLHQDWLNGKEYKCKVSNKGLPSSIEKTISKAKGQPREPQVYTLPPCQEEMTKNQVSLWCLVKGFYPSDIAVEWESNGQPENNYKTTPPVLDSDGSFFLYSRLTVDKSRWQEGNVFSCSVMHEALHNHYTQKSLSLSL
chain: QVQLVQSGGGLVQAGGSLRLSCAASGRTFSSYAMAWFRQAPGKEREFVAAISWSGANIYVADSVKGRFTISRDNAKDTVYLQMNSLKPEDTAVYYCAVKLGFAPVEERQYDYWGQGTQVTVSSESKYGPPCPPCPAPEAAGGPSVFLFPPKPKDTLMISRTPEVTCVVVDVSQEDPEVQFNWYVDGVEVHNAKTKPREEQFNSTYRVVSVLTVLHQDWLNGKEYKCKVSNKGLPSSIEKTISKAKGQPREPQVCTLPPSQEEMTKNQVSLSCAVKGFYPSDIAVEWESNGQPENNYKTTPPVLDSDGSFFLVSRLTVDKSRWQEGNVFSCSVMHEALHNRFTQKSLSLSL
light: QAVVTQESALTTSPGETVTLTCRSSTGAVTTSNYANWVQEKPDHLFTGLIGGTNKRAPGVPARFSGSLIGDKAALTITGAQTEDEAIYFCALWYSNLWVFGGGTKVEIKRTVAAPSVFIFPPSDEQLKSGTASVVCLLNNFYPREAKVQWKVDNALQSGNSQESVTEQDSKDSTYSLSSTLTLSKADYEKHKVYACEVTHQGLSSPVTKSFNRGEC
[2]
  BLI-Response (self-interaction): 0.066 nm

B3: CEA-BsAb bispecific control antibody (TA1-Fab anti-CD3 x CEA VHH) (bispecific antibody, human IgG4 S228P, kappa, F234A L235A)
heavy: EVKLLESGGGLVQPKGSLKLSCAASGFTFNTYAMNWVRQAPGKGLEWVARIRSKYNNYATYYADSVKDRFTISRDDSQSILYLQMNNLKTEDTAMYYCVRHGNFGNSYVSWFAYWGQGTLVTVSSASTKGPSVFPLAPCSRSTSESTAALGCLVKDYFPEPVTVSWNSGALTSGVHTFPAVLQSSGLYSLSSVVTVPSSSLGTKTYTCNVDHKPSNTKVDKRVESKYGPPCPPCPAPEAAGGPSVFLFPPKPKDTLMISRTPEVTCVVVDVSQEDPEVQFNWYVDGVEVHNAKTKPREEQFNSTYRVVSVLTVLHQDWLNGKEYKCKVSNKGLPSSIEKTISKAKGQPREPQVYTLPPCQEEMTKNQVSLWCLVKGFYPSDIAVEWESNGQPENNYKTTPPVLDSDGSFFLYSRLTVDKSRWQEGNVFSCSVMHEALHNHYTQKSLSLSL
chain: EVQLVESGGGFVQAGESLTLSCTSSTLTFTPYRMAWYRQAPGKQRDLVADISSGDGRTTNYADFAKGRFTISRDNIKNTVFLRMTNLKPEDTAVYYCNTFVSFVGIARSWGQGTQVTVSSESKYGPPCPPCPAPEAAGGPSVFLFPPKPKDTLMISRTPEVTCVVVDVSQEDPEVQFNWYVDGVEVHNAKTKPREEQFNSTYRVVSVLTVLHQDWLNGKEYKCKVSNKGLPSSIEKTISKAKGQPREPQVCTLPPSQEEMTKNQVSLSCAVKGFYPSDIAVEWESNGQPENNYKTTPPVLDSDGSFFLVSRLTVDKSRWQEGNVFSCSVMHEALHNRFTQKSLSLSL
light: QAVVTQESALTTSPGETVTLTCRSSTGAVTTSNYANWVQEKPDHLFTGLIGGTNKRAPGVPARFSGSLIGDKAALTITGAQTEDEAIYFCALWYSNLWVFGGGTKVEIKRTVAAPSVFIFPPSDEQLKSGTASVVCLLNNFYPREAKVQWKVDNALQSGNSQESVTEQDSKDSTYSLSSTLTLSKADYEKHKVYACEVTHQGLSSPVTKSFNRGEC
[3]
  BLI-Response (self-interaction): 0.103 nm

B4: CEA-CAM6-BsAb bispecific control antibody (TA1-Fab anti-CD3 x CEA-CAM6 VHH) (bispecific antibody, human IgG4 S228P, kappa, F234A L235A)
heavy: EVKLLESGGGLVQPKGSLKLSCAASGFTFNTYAMNWVRQAPGKGLEWVARIRSKYNNYATYYADSVKDRFTISRDDSQSILYLQMNNLKTEDTAMYYCVRHGNFGNSYVSWFAYWGQGTLVTVSSASTKGPSVFPLAPCSRSTSESTAALGCLVKDYFPEPVTVSWNSGALTSGVHTFPAVLQSSGLYSLSSVVTVPSSSLGTKTYTCNVDHKPSNTKVDKRVESKYGPPCPPCPAPEAAGGPSVFLFPPKPKDTLMISRTPEVTCVVVDVSQEDPEVQFNWYVDGVEVHNAKTKPREEQFNSTYRVVSVLTVLHQDWLNGKEYKCKVSNKGLPSSIEKTISKAKGQPREPQVYTLPPCQEEMTKNQVSLWCLVKGFYPSDIAVEWESNGQPENNYKTTPPVLDSDGSFFLYSRLTVDKSRWQEGNVFSCSVMHEALHNHYTQKSLSLSL
chain: QVKLEESGGGLVQAGGSLRLSCRTSGRTNSVYTMGWFRQAPGKEREFVAQIMWGAGTNTHYADSVKGRFTISRDSAESTVYLQMNSLKPEDTAVYYCAANRGIPIAGRQYDYWGQGTQVTVSSESKYGPPCPPCPAPEAAGGPSVFLFPPKPKDTLMISRTPEVTCVVVDVSQEDPEVQFNWYVDGVEVHNAKTKPREEQFNSTYRVVSVLTVLHQDWLNGKEYKCKVSNKGLPSSIEKTISKAKGQPREPQVCTLPPSQEEMTKNQVSLSCAVKGFYPSDIAVEWESNGQPENNYKTTPPVLDSDGSFFLVSRLTVDKSRWQEGNVFSCSVMHEALHNRFTQKSLSLSL
light: QAVVTQESALTTSPGETVTLTCRSSTGAVTTSNYANWVQEKPDHLFTGLIGGTNKRAPGVPARFSGSLIGDKAALTITGAQTEDEAIYFCALWYSNLWVFGGGTKVEIKRTVAAPSVFIFPPSDEQLKSGTASVVCLLNNFYPREAKVQWKVDNALQSGNSQESVTEQDSKDSTYSLSSTLTLSKADYEKHKVYACEVTHQGLSSPVTKSFNRGEC
[4]
  BLI-Response (self-interaction): 0.045 nm

B5: EGFR-BsAb bispecific control antibody (TA1-Fab anti-CD3 x EGFR VHH) (bispecific antibody, human IgG4 S228P, kappa, F234A L235A)
heavy: EVKLLESGGGLVQPKGSLKLSCAASGFTFNTYAMNWVRQAPGKGLEWVARIRSKYNNYATYYADSVKDRFTISRDDSQSILYLQMNNLKTEDTAMYYCVRHGNFGNSYVSWFAYWGQGTLVTVSSASTKGPSVFPLAPCSRSTSESTAALGCLVKDYFPEPVTVSWNSGALTSGVHTFPAVLQSSGLYSLSSVVTVPSSSLGTKTYTCNVDHKPSNTKVDKRVESKYGPPCPPCPAPEAAGGPSVFLFPPKPKDTLMISRTPEVTCVVVDVSQEDPEVQFNWYVDGVEVHNAKTKPREEQFNSTYRVVSVLTVLHQDWLNGKEYKCKVSNKGLPSSIEKTISKAKGQPREPQVYTLPPCQEEMTKNQVSLWCLVKGFYPSDIAVEWESNGQPENNYKTTPPVLDSDGSFFLYSRLTVDKSRWQEGNVFSCSVMHEALHNHYTQKSLSLSL
chain: QVQLQESGGGSVQAGGSLKLSCAASGRGFSRYAMGWFRQAPGQDREFVATISWTNSTDYADSVKGRFAISRDNAKNTAYLQMNSLKPEDTAVYYCAADKWASSTRSIDYDYWGQGIQVTVSSESKYGPPCPPCPAPEAAGGPSVFLFPPKPKDTLMISRTPEVTCVVVDVSQEDPEVQFNWYVDGVEVHNAKTKPREEQFNSTYRVVSVLTVLHQDWLNGKEYKCKVSNKGLPSSIEKTISKAKGQPREPQVCTLPPSQEEMTKNQVSLSCAVKGFYPSDIAVEWESNGQPENNYKTTPPVLDSDGSFFLVSRLTVDKSRWQEGNVFSCSVMHEALHNRFTQKSLSLSL
light: QAVVTQESALTTSPGETVTLTCRSSTGAVTTSNYANWVQEKPDHLFTGLIGGTNKRAPGVPARFSGSLIGDKAALTITGAQTEDEAIYFCALWYSNLWVFGGGTKVEIKRTVAAPSVFIFPPSDEQLKSGTASVVCLLNNFYPREAKVQWKVDNALQSGNSQESVTEQDSKDSTYSLSSTLTLSKADYEKHKVYACEVTHQGLSSPVTKSFNRGEC
[5]
  BLI-Response (self-interaction): 0.037 nm

Source: patent US20240409635A1
